Our source for the ratio to parent values is article PMC8281565.

For the experiment, the target named is histone H3 (UniProt P68431). The experiment can be described thus: co-immunoprecipitation (IP with SV40 antibody, WB, densitometry). The settings on record: nuclear extracts from transfected HCT116 cells; three different experiments; parent: est. 1.0; read off a plot.

On to “SV40 Large T antigen wild type (from UniProt P03070) S106A; S111A; S112G”, for which the ratio to parent is 0.61.
